Measured values: article PMC12207370, “Macrocyclic Peptide Probes for Immunomodulatory Protein CD59: Potent Modulators of Bacterial Toxin Activity and Antibody‐Dependent Cytotoxicity” (Angewandte Chemie (International Ed. in English), 2025)

Target: T1, biotinylated CD59 (Homo sapiens, UniProt P13987)
T1 construct: Recombinant soluble human CD59 with an additional C-terminal cysteine residue
T1 sequence (P13987 26-102 limits assumed): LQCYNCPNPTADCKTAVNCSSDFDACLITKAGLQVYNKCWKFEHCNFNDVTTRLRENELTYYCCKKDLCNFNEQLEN
Experiment: mRNA-display cyclic peptide screen against CD59-biotin, NGS abundance after 6th selection round
Conditions: for Percentage Seq I: counts normalised by total counts of sample Seq I; for Percentage Seq I / Percentage Seq II: percentage of the pool; for Percentage Seq I / Percentage Seq II / Percentage Average / Percentage of the pool, averaged across the two sequencing samples / Percentage of the pool, Seq I / Percentage of the pool, Seq II: sheet R6; for Percentage Seq II: counts normalised by total counts of sample Seq II; for Percentage Average: percentage of the pool averaged across the two sequencing samples; for Counts Seq I / Counts Seq II: raw NGS counts of peptide sequence; for Counts Seq I: sequencing sample Seq I; for Counts Seq I / Counts Seq II / Counts (raw counts for peptide sequence), Seq I / Counts (raw counts for peptide sequence), Seq II: sheet R6 (6th selection round); for Counts Seq II: sequencing sample Seq II; for Counts (raw counts for peptide sequence), Seq I: NGS sample Seq I; for Counts (raw counts for peptide sequence), Seq II: NGS sample Seq II; for Percentage of the pool, averaged across the two sequencing samples: average of Seq I and Seq II; for Percentage of the pool, Seq I: counts normalised by total counts of NGS sample Seq I; for Percentage of the pool, Seq II: counts normalised by total counts of NGS sample Seq II
In short: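 Peptide–mRNA fusions were made by in vitro translation with a customised PURE express kit. The kit lacked release factor 1 and methionine and was supplemented with […] initiator tRNA carrying N-chloroacetyl-d-tyrosine. Thioether macrocycles were formed, then enriched and amplified over iterative rounds on CD59-biotin immobilised on streptavidin beads. NGS read counts per sequence were recorded after the 6th selection round.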

Sequence	Percentage Seq I [%]	Percentage Seq II [%]	Percentage Average [%]	Counts Seq I	Counts Seq II	Counts (raw counts for peptide sequence), Seq I	Counts (raw counts for peptide sequence), Seq II	Percentage of the pool, averaged across the two sequencing samples [%]	Percentage of the pool, Seq I [%]	Percentage of the pool, Seq II [%]
RAWGNRYIAYY	0.027	0.030	0.029	119	13					
RCWASGSRDWR						95	6	0.018	0.022	0.014
RCWVRGSRNYT						45	4	0.010	0.010	0.009
RGGTRDTIWG	0.078	0.063	0.070	340	27					
RIGTSTCPFKFS	0.024	0.023	0.024	106	10					
RRDRFDQCVL						33	5	0.010	0.00754	0.012
RTCHLRHDGPHA						59	6	0.014	0.013	0.014
RVGSQFCAQL						33	9	0.014	0.00754	0.021
RYGGRTFIYAWS	0.025	0.026	0.025	111	11					
SACGNRQIQYY						51	6	0.013	0.012	0.014
SARGNRQIQYY	0.026	0.028	0.027	114	12					
SAWGDRQIQYY						64	6	0.014	0.015	0.014
SAWGNQQIQYY	0.028	0.026	0.027	124	11					
SAWGNRKIQYY						55	5	0.012	0.013	0.012
SAWGNRLIQYY						80	5	0.015	0.018	0.012
SAWGNRQIKYY						65	6	0.014	0.015	0.014
SAWGNRQIQCY						55	5	0.012	0.013	0.012
SAWGNRQIQHY						74	3	0.012	0.017	0.007
